The supplement of paper PMC9170038

System: MS2 coat protein
Test: apparent KD of MS2 coat protein; designed switch direction (-1 OFF switch, 1 ON switch): -1; higher = weaker reporter binding
In short: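 Stalled E. coli RNA polymerase transcribed designed RNA switches on Illumina chips, which were then titrated with SNAP-549-labelled MS2 coat protein, doubling from 0.7 or 1.5 nM to 3 µM. Steps lasted from 0.8–1.5 h at the lowest concentration to 10–20 min at the highest. The apparent KD is each design's median over clusters of curve-fitted normalised fluorescence.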

[1] = Eterna round: R95, input ligand: microRNA oligo, concentration not stated
[2] = input ligand: microRNA oligo, concentration not stated
[3] = Eterna round: R95, input ligand: FMN 200 uM
[4] = Eterna round: R95, input ligand: none

| Sequence | apparent KD of MS2 coat protein [1] [nM] | apparent KD of MS2 coat protein (input ligand: FMN 200 uM) [nM] | apparent KD of MS2 coat protein (input ligand: none) [nM] | apparent KD of MS2 coat protein [2] [nM] | apparent KD of MS2 coat protein [3] [nM] | apparent KD of MS2 coat protein [4] [nM] |
| --- | --- | --- | --- | --- | --- | --- |
| GAUCAACAUGAGGAUCACCCAUGUGAGGAUAUGAUACUAUGUACUUCGGUACAUAGUAUCAGAAGGCACUAGGA [Ex1-3: 40] (puzzle: Exclusion 1) | 64 |  |  |  |  |  |
| GAUCAUGCAGGAUAUGCAGUAACCAUGAAAACAUGGUUGCAACAUGAGGAUCACCCAUGUAGAAGGGCAUGAUC [Omei Ex2 A3] (Eterna round: R97, puzzle: Exclusion 2) |  | 10.8 | 13.9 |  |  |  |
| GAUCCACAUGAGGAUCACCCAUGUGAGGAUAUGAUACUAUGUACUUCGGUACAUAGUAUCAGAAGGCACGGAUC [Ex1-3: 54] (puzzle: Exclusion 1) | 24.6 |  |  |  |  |  |
| GAUCCGUUAGGAUAUCGUGAGGACAGCUAGUCUUAUUAACACGAGAAGGAACAUGAGGAUCACCCAUGUGGUAA [Eternabot (L1) Solution 14] (Eterna round: R97, puzzle: Exclusion 4) |  | 279 | 62.3 |  |  |  |
| GAUCGACAUGAGGAUCACCCAUGUCAGGAUAUCGUCACUGGAGCCUCGGCUCCAGUGACGAGAAGGGACAUAAU [E1/13-A2] (Eterna round: R97, puzzle: Exclusion 1) |  | 46.8 | 39.4 |  |  |  |
| GAUGGACAUGAGGAUCACCCAUGUAAGGAUAUUGUUUGUGGCUAGUUUUGGUUACGGGCGAGAAGGUACUCGUC [-19.7, -16.7 kcal, A 23%] (Eterna round: R97, puzzle: Exclusion 1) |  | 39.7 | 47.7 |  |  |  |
| GAUGUGGGUUUUCAGAGUAACAUGAGGAUCACCCAUGUAGAAGUUGGAGGGAUCAAGCUUUUUGGUCGUCAUAUGUG [JR_SV3TOV1_Sub051] (Eterna round: R96, puzzle: Sensor v3, turn-off variant 1) |  | 603 | 588 | 358 |  |  |
| GAUGUGGGUUUUCAGAGUAACAUGAGGAUCACCCAUGUAGAAGUUGGAGGGAUCAAGCUUUUUGGUCGUCAUAUGUG [JR_SV3TOV1_Sub051] (puzzle: Sensor v3, turn-off variant 1) | 511 |  |  |  | 442 | 509 |
| GAUUAACAAGCGAGAUCCCACAUGAGGAUCACCCAUGUGCUCGUCUUAUAAGGUACUGUGACGAAAGUCACGGUACC [Mat - Sensor, turn-off var - Eli Mod - D5] (Eterna round: R97, puzzle: Sensor, turn-off variant 1) |  | 13.5 | 15.2 |  |  |  |
| GAUUAACAUGAGGAUCACCCAUGUGAGGAUAUGGACUUGCCCACUUAACCAUUAGAGUCUAGAAGGCGCAUCUG [1986#25] (Eterna round: R97, puzzle: Exclusion 1) |  | 32.9 | 29.8 |  |  |  |
| GAUUAUGCAGGCUUUAGGGACAUGAGGAUCACCCAUGUUCGUCUUAUUGAUCUAGGUACGCUGACGUACCUAGAUCU [JL-sv1-2.34 Brourd mod] (puzzle: Sensor v3, turn-off variant 1) | 42.5 |  |  |  | 19.3 | 20.4 |
| GAUUAUGCGAGCUUUAGGGACAUGAGGAUCACCCAUGUUCGUCUUAUUAGUCUAGGUACGCUAACAUACCUAAAUCU [JMF 40] (puzzle: Sensor v3, turn-off variant 1) | 35.9 |  |  |  | 20.2 | 22.8 |
| GAUUAUGCGAGCUUUAGGGACAUGAGGAUCACCCAUGUUCGUCUUAUUAGUCUAGGUGCACUGACAUACCUAAAUCU [JMF 90] (puzzle: Sensor v3, turn-off variant 1) | 26.1 |  |  |  | 19.1 | 18.3 |
| GAUUAUGCGAGCUUUAGGGACAUGAGGAUCACCCAUGUUCGUCUUAUUGAUCUAGGUGCACUAACAUACCUAAAUCU [JMF 34] (puzzle: Sensor v3, turn-off variant 1) | 41.2 |  |  |  | 24 | 27.7 |
| GAUUAUGCGAGCUUUAGGGACAUGAGGAUCACCCAUGUUCGUCUUAUUGGUCUAAGUGCACUGACAUACCUAAAUCU [JMF 84] (puzzle: Sensor v3, turn-off variant 1) | 31.5 |  |  |  | 20.2 | 19.6 |
| GAUUAUGCGAGCUUUAGGGACAUGAGGAUCACCCAUGUUCGUCUUAUUGGUCUGAAUGCACUAACAUACCUAAAUCU [JMF 24] (puzzle: Sensor v3, turn-off variant 1) | 37 |  |  |  | 26.2 | 24.8 |
| GAUUAUGCGAGCUUUAGGGACAUGAGGAUCACCCAUGUUCGUCUUAUUGGUCUGAGUACACUAACAUACCUAAAUCU [JMF 15] (puzzle: Sensor v3, turn-off variant 1) | 26.4 |  |  |  | 18.3 | 20.3 |

| Sequence | apparent KD of MS2 coat protein [1] [nM] | apparent KD of MS2 coat protein (input ligand: FMN 200 uM) [nM] | apparent KD of MS2 coat protein (input ligand: none) [nM] | apparent KD of MS2 coat protein [2] [nM] | apparent KD of MS2 coat protein [3] [nM] | apparent KD of MS2 coat protein [4] [nM] |
| --- | --- | --- | --- | --- | --- | --- |
| GAUUGACAUGAGGAUCACCCAUGUGAGGAUAUCGGCCGGACCUUGUUAGCUUCCACCGCGAGAAGGCACAUAGG [Exclusion 1 V31] (puzzle: Exclusion 1) | 25.3 |  |  |  |  |  |
| GAUUGACAUGAGGAUCACCCAUGUGAGGAUAUCGGCUGGACCGUGUUGGCGUGCCUCUCGAGAAGGCGCAUAGG [Exclusion 1 V54] (puzzle: Exclusion 1) | 39.9 |  |  |  | 64.8 | 51.3 |
| GAUUGACAUGAGGAUCACCCAUGUGAGGAUAUCGGCUGGACCGUGUUGGCUUGCUUCUCGAGAAGGCGCAUAGG [Exclusion 1 V51] (puzzle: Exclusion 1) | 33.9 |  |  |  | 32.7 | 36 |
| GAUUGACAUGAGGAUCACCCAUGUGAGGAUAUCGGCUGGACCGUGUUGGCUUGCUUUUCGAGAAGGCGCAUAGG [Exclusion 1 V49] (puzzle: Exclusion 1) | 36.8 |  |  |  | 55 | 35 |
| GAUUGAGAGCAGGAUAUCUUAGAAAUGUAUUAAAGAGAAGGGCUCACAUGAGGAUCACCCAUGUGGUCCUAGAU [JL Dibiri mod 16] (Eterna round: R96, puzzle: Exclusion 6) |  | 306 | 26.3 | 22.8 |  |  |
| GAUUGAGAGCAGGAUAUCUUAGAAAUGUAUUAAAGAGAAGGGCUCACAUGAGGAUCACCCAUGUGGUCCUAGAU [JL Dibiri mod 16] (puzzle: Exclusion 6) | 20.8 |  |  |  |  |  |
| GCAAGACGAGGAUAUUGAGAAGGGAACAUGAGGAUCACCCAUGUGGUGGUUUCGACCGGUCGAGAAGGCGUAGAAC [EX5 B.6] (Eterna round: R97, puzzle: Exclusion 5) |  | 1150 | 957 |  |  |  |
| GCAAGCUUUUUCGUGGGUGACAUGAGGAUCACCCAUGUUUGCCACGUCUUGUGGGCCCGGGCCCGCGGCCCGGGCCC [-44.9, -65.2, A 12%] (Eterna round: R97, puzzle: Sensor, turn-off variant 1) |  | 54.6 | 67.6 |  |  |  |
| GCACAGACAGGAUAUACAUGAGGAUCACCCAUGUGACCCUUAUAGUACUCGCGUACAAGUAGAAGGGUCUGUGC [Omei Ex3 Model Bachelor's Dilema v32] (Eterna round: R97, puzzle: Exclusion 3) |  | 320 | 832 |  |  |  |
| GCACGGAGUGUAGGAUAUCUGUGCGAUUAGCUCAGAGAAGGACACAUGAGGAUCACCCAUGUGUACCUCAACACUAAUCCGUGC [Eli exng1 - 076] (Eterna round: R96, puzzle: Exclusion NG 1) |  | 10.5 | 10.1 | 8.88 |  |  |
| GCACGGAUGGUAGGAUAUCUGUGCGAUUAGCUCAGAGAAGGACCACAUGAGGAUCACCCAUGUACCUCAAUUAGCCUUCCGUGC [Eli exng1 - 019] (Eterna round: R96, puzzle: Exclusion NG 1) |  | 14.8 | 15.2 | 11.3 |  |  |
| GCAGAAAGUGUAGGAUAUAGAAAUUAGCGGAAACGCAAUACAUGAGGAUCACCCAUGUUUCCUCACUAGAAGGGCAAAAGCUGC [EXNG2 V2 f] (Eterna round: R96, puzzle: Exclusion NG 2) |  |  |  | 12.8 |  |  |
| GCAGAAAGUGUAGGAUAUAGAUAUUAGCGGAAACGCAAUACAUGAGGAUCACCCAUGUUUCCUCACUAGAAGGGCAAAAGCUGC [EXNG2 V2 d] (Eterna round: R96, puzzle: Exclusion NG 2) |  | 18.7 | 17.2 | 12.5 |  |  |
| GCAGACGUAGUGAGGAUAUGCUCUACCUCGGUAGAGCAGAAGGCACAUGAGGAUCACCCAUGUGAUUCUUCUGC [Omei Ex4B B10] (Eterna round: R97, puzzle: Brourd's mod of Exclusion 4) |  | 324 | 47.2 |  |  |  |
| GCAGACGUAGUGAGGAUAUGCUCUACCUCGGUAGAGCAGAAGGCACAUGAGGAUCACCCAUGUGGUUCCUCAUC [Omei Ex4B B19] (Eterna round: R97, puzzle: Brourd's mod of Exclusion 4) |  | 54 | 15.6 |  |  |  |
| GCAGCAAAAUUCCAUAAAACCACAUGAGGAUCACCCAUGUCUCAGGAUAUGGUCUGGAUUACAGGCCAGAAGGGAGAAAGCUGC [Eli exng3 - 058] (Eterna round: R96, puzzle: Exclusion NG 3) |  | 14.6 | 13.9 | 12.6 |  |  |
| GCAGCAUAGUGUUAUUACACAAUACAUGAGGAUCACCCAUGUGAGGAUAUGGACUGGAUUACAGUCCAGAAGGCACAAAGCUGC [Zipper Style 3] (Eterna round: R96, puzzle: Exclusion NG 3) |  | 21.7 | 19.8 | 12.5 |  |  |
